Results published in patent US5747447.

T1: vitronectin receptor (M21 melanoma cell attachment assay) (Homo sapiens (Human)), P06756
T1 chain 1: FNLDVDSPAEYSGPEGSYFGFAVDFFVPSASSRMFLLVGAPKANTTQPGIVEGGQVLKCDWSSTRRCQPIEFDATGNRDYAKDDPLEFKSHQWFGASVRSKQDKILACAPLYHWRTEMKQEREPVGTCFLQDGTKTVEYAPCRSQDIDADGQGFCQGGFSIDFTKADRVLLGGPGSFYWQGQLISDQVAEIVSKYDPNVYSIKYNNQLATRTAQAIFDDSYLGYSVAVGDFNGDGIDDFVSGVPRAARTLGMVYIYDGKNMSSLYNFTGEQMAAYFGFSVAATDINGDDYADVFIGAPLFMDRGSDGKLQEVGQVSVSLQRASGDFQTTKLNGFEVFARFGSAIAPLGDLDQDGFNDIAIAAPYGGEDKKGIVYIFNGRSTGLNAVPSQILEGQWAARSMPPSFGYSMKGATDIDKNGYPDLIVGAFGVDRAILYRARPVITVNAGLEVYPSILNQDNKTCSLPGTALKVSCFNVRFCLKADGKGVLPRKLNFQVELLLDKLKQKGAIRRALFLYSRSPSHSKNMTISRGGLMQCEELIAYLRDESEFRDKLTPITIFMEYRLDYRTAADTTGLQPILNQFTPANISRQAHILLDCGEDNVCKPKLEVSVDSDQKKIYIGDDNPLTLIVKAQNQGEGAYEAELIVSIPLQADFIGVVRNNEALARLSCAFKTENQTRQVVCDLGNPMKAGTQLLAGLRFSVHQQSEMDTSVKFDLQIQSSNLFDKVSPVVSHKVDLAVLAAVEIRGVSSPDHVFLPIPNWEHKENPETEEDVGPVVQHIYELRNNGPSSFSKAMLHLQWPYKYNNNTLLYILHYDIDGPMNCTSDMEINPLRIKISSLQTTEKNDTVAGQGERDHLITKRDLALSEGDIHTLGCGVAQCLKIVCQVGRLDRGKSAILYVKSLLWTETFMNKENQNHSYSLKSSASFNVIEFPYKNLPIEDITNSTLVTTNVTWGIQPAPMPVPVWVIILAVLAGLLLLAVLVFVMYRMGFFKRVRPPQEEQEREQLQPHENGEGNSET
T1 chain 2: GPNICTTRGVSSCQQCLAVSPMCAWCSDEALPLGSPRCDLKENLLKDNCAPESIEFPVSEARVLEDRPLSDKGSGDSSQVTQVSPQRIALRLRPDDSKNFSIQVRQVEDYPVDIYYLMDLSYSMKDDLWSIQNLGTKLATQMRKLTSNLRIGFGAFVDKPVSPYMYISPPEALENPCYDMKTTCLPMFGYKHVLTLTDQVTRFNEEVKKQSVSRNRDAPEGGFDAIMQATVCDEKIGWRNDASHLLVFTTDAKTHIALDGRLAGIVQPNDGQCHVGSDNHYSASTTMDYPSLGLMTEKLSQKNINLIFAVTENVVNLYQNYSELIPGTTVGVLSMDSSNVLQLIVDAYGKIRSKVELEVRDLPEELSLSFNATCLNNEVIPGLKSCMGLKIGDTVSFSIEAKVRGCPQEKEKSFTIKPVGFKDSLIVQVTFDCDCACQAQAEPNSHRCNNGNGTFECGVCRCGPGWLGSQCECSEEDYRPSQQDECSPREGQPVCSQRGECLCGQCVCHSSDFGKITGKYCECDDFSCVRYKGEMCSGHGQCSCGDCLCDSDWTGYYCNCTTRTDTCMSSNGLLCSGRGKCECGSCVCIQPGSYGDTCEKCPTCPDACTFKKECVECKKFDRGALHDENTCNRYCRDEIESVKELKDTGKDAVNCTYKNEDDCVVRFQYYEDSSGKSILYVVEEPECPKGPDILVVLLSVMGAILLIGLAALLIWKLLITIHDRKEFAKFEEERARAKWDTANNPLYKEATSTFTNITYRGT


Tests used:
[1] = target: T1, vitronectin receptor (M21 melanoma cell …)
[2] = target: GP IIb-IIIa on human platelets (human), P08514

Binder	M21 cell attachment to vitronectin [1] [µM]	Appr, IC50 (uM): inhibition of ADP-induced human platelet aggregation [2] [µM]
GCGKGDWPCA (modifications not checked) [analog #3]	> 60	–
GCKGDWPCA (modifications not checked) [analog #4]	–	5
CGKGDWPC (modifications not checked) [analog #5]	–	5
